From patent US20120316071A1 (published 2012)

Assays:
[1] = target: T1, Recombinant Human DLL4 (R&D Systems Cat#1506-D4/CF) (human, UniProt Q9NR61 27-524); assay: ECL 96-well plate assay; 0.02 uM Fab, plate coated with 30 ug/mL DLL4
T1 construct: Bought recombinant protein; also called delta-like protein 4; rHuman DLL4

[2] = target: T1, Recombinant Human DLL4 (R&D Systems …); assay: ECL 96-well plate assay; 0.004 uM Fab, plate coated with 15 ug/mL DLL4
[3] = target: T2, rHuman EGF R/Fc Chimera, CF (R&D Systems Cat#344-ER) (human, UniProt P00533 25-645); assay: ECL multispot (MSD) assay, antigen spotted on plate, 10 nM Fab;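 also: bound Fab detected with a TAG-labelled detection antibody (1 h, 20 °C), electrochemiluminescence read and compared with each well's blank, signal/blank of 4 or above scored as hit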
T2 construct: Bought recombinant Fc chimera; also called epidermal growth factor receptor; Fc part of the bought chimera not given

[4] = target: T3, rHuman IGF-1 sR, CF (R&D Systems Cat#391-GR) (human, UniProt P08069 31-932); assay: as above
T3 construct: Bought soluble receptor; also called insulin-like growth factor-1 soluble receptor

[5] = target: T4, rHuman HGF R/c-MET/Fc Chimera, CF (R&D Systems Cat#358-MT/CF) (human, UniProt P08581 25-932); assay: as above
T4 construct: Bought recombinant Fc chimera; also called HGF R/Fc; hepatocyte growth factor receptor; Fc part of the bought chimera not given
T4 sequence (P08581 25-932, change not shown): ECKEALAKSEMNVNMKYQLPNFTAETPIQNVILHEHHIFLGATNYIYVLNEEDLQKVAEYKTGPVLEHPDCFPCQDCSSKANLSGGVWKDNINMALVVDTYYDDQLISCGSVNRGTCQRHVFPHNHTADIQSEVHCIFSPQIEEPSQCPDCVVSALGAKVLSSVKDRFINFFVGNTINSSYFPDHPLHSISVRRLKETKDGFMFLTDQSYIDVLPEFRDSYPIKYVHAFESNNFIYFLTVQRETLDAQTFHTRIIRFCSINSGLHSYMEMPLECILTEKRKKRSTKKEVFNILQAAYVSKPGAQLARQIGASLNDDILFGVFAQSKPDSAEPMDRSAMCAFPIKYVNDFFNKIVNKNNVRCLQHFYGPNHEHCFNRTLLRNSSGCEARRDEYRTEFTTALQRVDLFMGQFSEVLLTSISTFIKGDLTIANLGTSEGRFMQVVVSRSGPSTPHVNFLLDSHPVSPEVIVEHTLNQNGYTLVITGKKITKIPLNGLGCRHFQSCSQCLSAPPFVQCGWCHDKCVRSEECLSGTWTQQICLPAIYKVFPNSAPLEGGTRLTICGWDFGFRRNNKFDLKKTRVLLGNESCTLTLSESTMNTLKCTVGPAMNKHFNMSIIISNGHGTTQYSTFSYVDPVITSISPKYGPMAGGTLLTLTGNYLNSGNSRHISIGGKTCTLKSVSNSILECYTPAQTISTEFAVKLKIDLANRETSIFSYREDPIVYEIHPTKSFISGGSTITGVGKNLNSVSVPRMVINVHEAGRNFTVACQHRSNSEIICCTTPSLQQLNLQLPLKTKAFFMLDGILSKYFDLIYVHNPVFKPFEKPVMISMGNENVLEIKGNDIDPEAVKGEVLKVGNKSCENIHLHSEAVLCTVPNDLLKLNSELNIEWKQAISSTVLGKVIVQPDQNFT

[6] = target: T5, Recombinant Human DLL4 (R&D Systems Cat#1506-D4/CF) (human, UniProt Q9NR61 27-524); assay: as above
T5 construct: Bought recombinant protein; also called delta-like protein 4; rHuman DLL4

[7] = target: T6, rHuman P-Cadherin/Fc Chimera, CF (R&D Systems Cat#861-PC) (human, UniProt P22223 108-654); assay: as above
T6 construct: Bought recombinant Fc chimera; Fc part of the bought chimera not given

[8] = target: T7, rHuman ErbB2/Fc Chimera, CF (R&D Systems Cat#1129-ER) (human, UniProt P04626 23-652); assay: as above
T7 construct: Bought recombinant Fc chimera; also called human epidermal growth factor 2 receptor; Fc part of the bought chimera not given

Signal/Noise [1] | Signal/Noise [2] | Binder | also measured
51.7 | 69.8 | Fab VH1-46_IGHD6-6*01_IGHJ1*01 S102A & L6_IGKJ1*01 (Fab, V domains shown, Fab; heavy chain CDR3 NNK mutant of the parent; Constant parts as for the parent Fab) VH: QVQLVQSGAEVKKPGASVKVSCKASGYTFTSYYMHWVRQAPGQGLEWMGIINPSGGSTSYAQKFQGRVTMTRDTSTSTVYMELSSLRSEDTAVYYCAREEYASSSAEYFQHWGQGTLVTVSS VL: not shown | –
– | – | Fab VH1-46_IGHD6-6*01_IGHJ1*01 S102A/S103P/S104F/H111F & L6_IGKJ1*01 (Fab, V domains shown, Fab expressed in E. coli: VH cloned into Plasmid A (CH1, His6 and Flag tags), kappa VL into Plasmid C (kappa CL); also called APFF; H:APFF & L:wt) VH: QVQLVQSGAEVKKPGASVKVSCKASGYTFTSYYMHWVRQAPGQGLEWMGIINPSGGSTSYAQKFQGRVTMTRDTSTSTVYMELSSLRSEDTAVYYCAREEYAPFSAEYFQFWGQGTLVTVSS VL: not shown | ECL signal [3]: 383; ECL signal [4]: 397; ECL signal [5]: 347; ECL signal [6]: 78400; ECL signal [7]: 347; ECL signal [8]: 354
40.6 | 31.9 | Fab VH1-46_IGHD6-6*01_IGHJ1*01 S102Q & L6_IGKJ1*01 (Fab, V domains shown, Fab; heavy chain CDR3 NNK mutant of the parent; Constant parts as for the parent Fab (CH1 with His6/Flag tags, kappa CL)) VH: QVQLVQSGAEVKKPGASVKVSCKASGYTFTSYYMHWVRQAPGQGLEWMGIINPSGGSTSYAQKFQGRVTMTRDTSTSTVYMELSSLRSEDTAVYYCAREEYQSSSAEYFQHWGQGTLVTVSS VL: not shown | –
35.9 | 36.5 | Fab VH1-46_IGHD6-6*01_IGHJ1*01 S102V & L6_IGKJ1*01 (Fab, V domains shown, Fab; heavy chain CDR3 NNK mutant of the parent; Constant parts as for the parent Fab) VH: QVQLVQSGAEVKKPGASVKVSCKASGYTFTSYYMHWVRQAPGQGLEWMGIINPSGGSTSYAQKFQGRVTMTRDTSTSTVYMELSSLRSEDTAVYYCAREEYVSSSAEYFQHWGQGTLVTVSS VL: not shown | –
59.7 | 82.4 | Fab VH1-46_IGHD6-6*01_IGHJ1*01 S103P & L6_IGKJ1*01 (Fab, V domains shown, Fab; heavy chain CDR3 NNK mutant of the parent; Constant parts as for the parent Fab) VH: QVQLVQSGAEVKKPGASVKVSCKASGYTFTSYYMHWVRQAPGQGLEWMGIINPSGGSTSYAQKFQGRVTMTRDTSTSTVYMELSSLRSEDTAVYYCAREEYSPSSAEYFQHWGQGTLVTVSS VL: not shown | –
27.1 | 27.4 | Fab VH1-46_IGHD6-6*01_IGHJ1*01 S103C & L6_IGKJ1*01 (Fab, V domains shown, Fab; heavy chain CDR3 NNK mutant of the parent; Constant parts as for the parent Fab) VH: QVQLVQSGAEVKKPGASVKVSCKASGYTFTSYYMHWVRQAPGQGLEWMGIINPSGGSTSYAQKFQGRVTMTRDTSTSTVYMELSSLRSEDTAVYYCAREEYSCSSAEYFQHWGQGTLVTVSS VL: not shown | –
35.3 | 34.5 | Fab VH1-46_IGHD6-6*01_IGHJ1*01 S102I & L6_IGKJ1*01 (Fab, V domains shown, Fab; heavy chain CDR3 NNK mutant of the parent; Constant parts as for the parent Fab) VH: QVQLVQSGAEVKKPGASVKVSCKASGYTFTSYYMHWVRQAPGQGLEWMGIINPSGGSTSYAQKFQGRVTMTRDTSTSTVYMELSSLRSEDTAVYYCAREEYISSSAEYFQHWGQGTLVTVSS VL: not shown | –
5.1 | 5.2 | Fab VH1-46_IGHD6-6*01_IGHJ1*01 S102G & L6_IGKJ1*01 (Fab, V domains shown, Fab; heavy chain CDR3 NNK mutant of the parent; Constant parts as for the parent Fab) VH: QVQLVQSGAEVKKPGASVKVSCKASGYTFTSYYMHWVRQAPGQGLEWMGIINPSGGSTSYAQKFQGRVTMTRDTSTSTVYMELSSLRSEDTAVYYCAREEYGSSSAEYFQHWGQGTLVTVSS VL: not shown | –
21.7 | 31.7 | Fab VH1-46_IGHD6-6*01_IGHJ1*01 S103H & L6_IGKJ1*01 (Fab, V domains shown, Fab; heavy chain CDR3 NNK mutant of the parent; Constant parts as for the parent Fab) VH: QVQLVQSGAEVKKPGASVKVSCKASGYTFTSYYMHWVRQAPGQGLEWMGIINPSGGSTSYAQKFQGRVTMTRDTSTSTVYMELSSLRSEDTAVYYCAREEYSHSSAEYFQHWGQGTLVTVSS VL: not shown | –
0.8 | 1.1 | Fab VH1-46_IGHD6-6*01_IGHJ1*01 S103stop & L6_IGKJ1*01 (Fab, V domains shown, The heavy chain is therefore truncated in CDR3 and carries no CH1 or tags) VH: QVQLVQSGAEVKKPGASVKVSCKASGYTFTSYYMHWVRQAPGQGLEWMGIINPSGGSTSYAQKFQGRVTMTRDTSTSTVYMELSSLRSEDTAVYYCAREEYS VL: not shown | –
